Measurements published in US20230295288A1 (TILLOTTS PHARMA, published 2023).
Where a chain is given by its changes, count along the chain named.

Tests used:
[1] = target: T1, monomeric His-tagged human FcRn (human, UniProt P55899 24-297; P61769 21-119); assay: SPR, pH 6.0, KD against that of Ab-wt; pH 6.0; KD ratio to Ab-wt
T1 construct: The b2m chain is an addition from general knowledge; also called hFcRn; neonatal Fc receptor
Experimental: (§1) SPR was performed using a Biacore 3000 instrument with CM5 sensor chips coupled with anti-TNFα IgG1 antibodies (˜500 resonance units (RU)) using amine-coupling chemistry as described by the manufacturer. The coupling was performed by injecting 2.0 ug/mL of each protein in 10 mM sodium acetate, pH 4.5, using the amine-coupling kit (GE Healthcare). […] All SPR experiments were conducted at 25° C. with a flow rate of 40 ul/min. Binding data were zero-adjusted, and reference cell value subtracted. The Langmuir 1:1 ligand binding model provided by the BlAevaluation software (version 4.1) was used to determine the binding kinetics.

[2] = target: T1, monomeric His-tagged human FcRn; assay: SPR, pH 6.0, KD against that of infliximab; pH 6.0; KD ratio to IFX
Experimental: as §1

TNFα [3] = target: T2, TNFα (human, UniProt P01375 77-233); assay: SPR (Biacore), antibody captured on Protein A, TNFα as analyte, single cycle kinetics, 1:1 model, 25 °C
T2 construct: also called human TNFα
Experimental: Affinity to TNFα was measured by Biacore. A CM5 chip was prepared using standard amine immobilisation Biacore procedures. Upon insertion of a CM5 chip the system was primed and then normalised with BIA-normalising solution (Biacore Preventative Maintenance Kit 2). The chip was added to the system with Phosphate Buffered Saline Tween-20 (PBS-T) running buffer; prior to immobilisation the chip surface was primed with three injections of 50 mM NaOH. Protein A was immobilised on the chip surface. For this, the protein was diluted to 5 μg/mL into 10 mM acetate buffer at pH 4.5 and injected so to generate a bound response of ˜1000 RU's in all 4 flow cells. To remove non-covalently bound material from all the chip flow cells, three 15 second 50 mM NaOH washes were performed. On the Protein A chip, antibody was captured in flow cells 2 and 4, with flow cells 1 and 3 used for reference subtraction. The trial antibodies were diluted in PBS-T to 10 nM and 2.5-7.5 uL injected to obtain 120 RU of captured antibody. […] For each single cycle analysis cycle a titration of 5 analyte concentrations were injected over the ligand and then the dissociation of the complex was measured. The surface was regenerated using glycine pH 1.7. A double referencing method was employed in which data from the ligand bound capture surface (fc 2 and 4) were subtracted from the references surfaces where no ligand was captured (fc 1 and 3 respectively). Blank injections of buffer were run every 3-4 cycles and then subtracted from analyte injection cycles, to correct for small changes in the ligand capture surface. Repeat injections of analyte at the start and end of each analytical run were used to check for sample degradation, or changes in the instrument performance. All analysis was performed at 25° C. and the sample rack was incubated at 10° C. during experimental runs. Each experiment was run at least three times. A 1-to-1 binding model was used to fit the resulting kinetic data.

TNFα [4] = target: T2, TNFα; assay: cell-based or functional assay
CD16a(V) = target: T3, CD16a(V) (UniProt P08637 17-208); assay: SPR (Biacore), His-tagged FcγR captured on anti-His chip, antibody as analyte, single cycle kinetics, 25 °C
T3 construct: Captured on an anti-His tag chip, so it carried a His tag; also called Fcγ receptor CD16a(V)
Experimental: (§2) Affinity to FcγRs was measured by Biacore. A CM5 chip was prepared using standard amine immobilisation Biacore procedures. Upon insertion of a CM5 chip the system was primed and then normalised with BIA-normalizing solution (Biacore Preventative Maintenance Kit 2). The chip was added to the system with PBS-T running buffer; prior to immobilisation the chip surface was primed with three injections of 50 mM NaOH. FcγRs were immobilised on the chip surface using a His-tag capture system. The anti-His tag chip was prepared according to the Biacore kit instructions, with ˜12000 RU's of the antibody deposited on all 4 flow cells. To remove non-covalently bound material from all the chip flow cells, three 30 second 10 mM glycine pH 1.5 washes were performed. The Fcγ receptors were diluted in PBS-T to a range of 0.5-2 μg/mL, with 2.5-5.0 μL injected onto the chip generating capture levels between 60 and 200 RU's. Antibodies were diluted into PBS-T prior to analysis. Single cycle kinetics were used to estimate the steady state affinity. For each single cycle analysis cycle a titration of 5 antibody concentrations were injected over the FcγR ligand and then the dissociation of the complex was measured. The surface was regenerated using the recommended solution, 10 mM glycine pH 1.5 for the anti-His capture surface. A double referencing method was employed in which data from the ligand bound capture surface (fc 2 and 4) were subtracted from the references surfaces where no ligand was captured (fc 1 and 3 respectively). Blank injections of buffer were run for every antibody titration cycle and then subtracted from analyte injection cycles, to correct for small changes in the ligand capture surface. All analysis was performed at 25° C. and the sample rack was incubated at 10° C. during experimental runs. Each experiment was run at least three times.

CD16b(NA2) = target: T4, CD16b(NA2) (UniProt O75015 17-200, limits assumed); assay: as above
T4 construct: Captured on an anti-His tag chip, so it carried a His tag
Experimental: as §2

CD16a(F) = target: T5, CD16a(F) (UniProt P08637 17-208); assay: as above
T5 construct: Captured on an anti-His tag chip, so it carried a His tag
Experimental: as §2

[5] = target: T1, monomeric His-tagged human FcRn; assay: SPR (Biacore 3000), antibody amine-coupled, monomeric His-tagged hFcRn as analyte, pH 6.0, 1:1 Langmuir model, 25 °C; pH 6.0
Experimental: as §1

T4 sequence (O75015 17-200 N65S limits assumed): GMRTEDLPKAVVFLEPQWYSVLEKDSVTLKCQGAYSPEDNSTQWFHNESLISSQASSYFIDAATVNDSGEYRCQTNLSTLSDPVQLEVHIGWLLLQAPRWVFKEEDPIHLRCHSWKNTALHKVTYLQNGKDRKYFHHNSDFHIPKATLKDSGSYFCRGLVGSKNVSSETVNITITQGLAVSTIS
T2 sequence (P01375 77-233 limits assumed): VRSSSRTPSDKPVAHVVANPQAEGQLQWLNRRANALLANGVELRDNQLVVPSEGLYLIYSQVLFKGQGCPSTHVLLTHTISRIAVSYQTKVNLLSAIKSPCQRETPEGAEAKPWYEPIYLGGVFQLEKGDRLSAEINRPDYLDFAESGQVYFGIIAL
T3 sequence (P08637 17-208 F176V limits assumed): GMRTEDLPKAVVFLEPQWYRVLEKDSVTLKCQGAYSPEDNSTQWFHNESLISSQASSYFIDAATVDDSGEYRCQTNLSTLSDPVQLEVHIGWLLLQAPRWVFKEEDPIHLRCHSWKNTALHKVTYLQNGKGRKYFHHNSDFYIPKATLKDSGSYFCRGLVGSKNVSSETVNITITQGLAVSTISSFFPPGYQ
T1 sequence (P55899 24-297 limits assumed, chain 1 of 2): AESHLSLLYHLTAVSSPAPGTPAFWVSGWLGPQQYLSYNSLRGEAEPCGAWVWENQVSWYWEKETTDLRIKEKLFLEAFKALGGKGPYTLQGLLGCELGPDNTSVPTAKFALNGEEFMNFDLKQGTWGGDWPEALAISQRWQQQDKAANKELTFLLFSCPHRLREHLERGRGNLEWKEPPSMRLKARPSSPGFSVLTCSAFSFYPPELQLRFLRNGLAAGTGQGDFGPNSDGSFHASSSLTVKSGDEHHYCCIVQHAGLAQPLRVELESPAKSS
T1 sequence (P61769 21-119 limits assumed, chain 2 of 2): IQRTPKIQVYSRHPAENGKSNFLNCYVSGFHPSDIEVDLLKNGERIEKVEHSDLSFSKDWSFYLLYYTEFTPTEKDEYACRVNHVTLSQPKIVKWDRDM
T5 sequence (P08637 17-208 limits assumed): as the sequence (P08637 17-208 F176V limits assumed) above, with V160F counted along it

B1: Ab-A-DLE-PVAΔG (antibody, human IgG1, kappa)
heavy: EVQLVESGGGLVQPGGSLRLSCKASGIDFNNYGIGWVRQAPGKGLEWITYIYPGFAITNFANSVKGRFTISSDNSKNTVYLQMNSLRAEDTAVYYCARDPVYATSSGYFDLWGQGTLVTVSSASTKGPSVFPLAPSSKSTSGGTAALGCLVKDYFPEPVTVSWNSGALTSGVHTFPAVLQSSGLYSLSSVVTVPSSSLGTQTYICNVNHKPSNTKVDKKVEPKSCDKTHTCPPCPAPPVAGPDVFLFPPKPKDTLMISRTPEVTCVVVDVSHEDPEVKFNWYVDGVEVHNAKTKPREEQYNSTYRVVSVLTVLHQDWLNGKEYKCKVSNKALPLPEEKTISKAKGQPREPQVYTLPPSREEMTKNQVSLTCLVKGFYPSDIAVEWESNGQPENNYKTTPPVLDSDGSFFLYSKLTVDKSRWQQGNVFSCSVMHEALHAHYTQKSLSLSPGK
light: DIQMTQSPSSLSASVGDRVTIKCQASQSIFSGLAWYQQKPGKAPKLLIYGASKLASGVPSRFSGSGSGTEFTLTISGLQPADFATYYCQSYYYSSSSSDGSYAFGGGTKLTVLGRTVAAPSVFIFPPSDEQLKSGTASVVCLLNNFYPREAKVQWKVDNALQSGNSQESVTEQDSKDSTYSLSSTLTLSKADYEKHKVYACEVTHQGLSSPVTKSFNRGEC
Fold change from wt [1]: 6.4 fold
Fold change from IFX [2]: 2.7 fold
Kd (TNFα [3]): 0.00288 nM
koff (TNFα [3]): 3.04e-05 s⁻¹
kon (TNFα [3]): 1.13e+07 M⁻¹ s⁻¹
IC50 (read off the curve), L929 TNFα neutralisation [upper panel] (TNFα [4]): ~7 ng/mL
Kd (CD16a(V)): 68.7 nM
Kd (CD16b(NA2)): 470 nM
Kd (CD16a(F)): 110 nM
Kd [5]: 157 nM

B2: Ab-wt (antibody, human IgG1, kappa)
heavy: not shown
light: B1 light
notes: Human IgG1 anti-TNFα antibody with a wild-type Fc region; also called parent antibody; wild-type antibody
Kd (TNFα [3]): 0.00413 nM
koff (TNFα [3]): 3.45e-05 s⁻¹
kon (TNFα [3]): 8.37e+06 M⁻¹ s⁻¹
IC50 (read off the curve), L929 TNFα neutralisation [lower panel] (TNFα [4]): ~7 ng/mL
Kd (CD16a(V)): 184 nM
Kd (CD16b(NA2)): > 3000 nM
Kd [5]: 1000 nM

B3: Ab-YTE-DLE-PVAΔG (antibody, human IgG1, kappa)
heavy: B1 heavy with M256Y, S258T, T260E, A438N
light: B1 light
Fold change from wt [1]: 11.1 fold
Fold change from IFX [2]: 4.7 fold
Kd (TNFα [3]): 0.00157 nM
koff (TNFα [3]): 1.28e-05 s⁻¹
kon (TNFα [3]): 8.14e+06 M⁻¹ s⁻¹
IC50 (read off the curve), L929 TNFα neutralisation [lower panel] (TNFα [4]): ~6 ng/mL
Kd (CD16a(V)): 117 nM
Kd (CD16b(NA2)): 1030 nM
Kd [5]: 90 nM

B4: Ab-A-AEA-PVAΔG (antibody, human IgG1, kappa)
heavy: B1 heavy with D243S, K330A, L334A, E337A
light: B1 light
Kd (TNFα [3]): 0.00251 nM
koff (TNFα [3]): 2.19e-05 s⁻¹
kon (TNFα [3]): 9.16e+06 M⁻¹ s⁻¹
IC50 (read off the curve), L929 TNFα neutralisation [lower panel] (TNFα [4]): ~9 ng/mL
Kd (CD16a(V)): 260 nM
Kd (CD16b(NA2)): 5180 nM
